Assay results reported in the supplement of paper PMC10567573.

B1: FAM164A (parent)
chain: YDPDYIQCPYCQRRFNENAADRHI

Variants of: B1
Test: protein stability index of a GFP-peptide fusion (GPS, HEK-293T) (PSI 1-6); higher = more stable
Details: c terminus: a fixed tail appended
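Also: lentivirally expressed fusions sorted by FACS into six bins by GFP to DsRed ratio, PSI derived from sequencing read proportions per bin multiplied by bin number.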

Protein stability index, by site and new letter:
R13: H 3.51, S 3.62, C 3.17, Q 3.75, I 2.92, L 2.64, M 4.03, D 3.16, E 3.07, G 4.23, N 3.68, F 3.18, W 2.13, P 2.24, Y 2.7, T 2.41, A 3.76, K 4.32, V 2.23
E17: N 5.01, R 4.89, L 5.16, F 5.14, Y 4.68, W 4.77, M 5.01, D 4.37, T 4.91, Q 4.94, G 4.5, H 4.97, A 5.13, P 5.37, V 5.04, I 5.23, C 5.13, S 4.69, K 5.07
Y10: W 3.89
Q12: K 5.16, T 2.4, Y 4.3, H 4.93, P 2.64, W 3.61, A 4.08, G 4.74, D 3.26, V 2.48, N 4.05, I 2.52, F 4.24, E 4.04, L 4.9, S 3.52, C 3.84, R 4.27, M 3.85
C11: A 3.48, M 3.65, S 4.03, V 3.57, T 3.72, Q 3.47, N 4.36, R 3.06, F 3.45, Y 3.45, D 3.81, E 4.23, H 3.69, K 3.57, P 3.65, I 3.22, W 3.42, G 3.75, L 3.13
N16: M 4.54, C 4.37, L 4.45, I 4.75, Q 4.56, H 3.8, W 4.61, P 5.53, Y 4.94, G 3.71, D 3.79, R 5.19, E 3.97, A 4.63, F 4.49, T 4.48, S 4.56, K 4.8, V 4.39
A19: P 4.03, F 4.24, I 4.02, H 4.12, R 4.11, C 4.42, Q 4.37, E 4.61, L 4.03, K 4, M 3.88, D 4.47, G 4.41, N 4.37
R14: Q 4.24, G 2.81, D 3.08, L 4.28, T 4.45, C 4.41, H 4, W 5.12, K 4.01, V 4.67, A 4.16, I 4.64, S 4.11, Y 4.52, M 3.77, F 5.24, P 3.9, N 2.68, E 3.88
N18: C 4.15, Y 3.72, S 4.28, P 3.91, R 3.71, L 3.93, A 4.22, T 4.11, I 3.36, V 3.86, M 3.48, F 3.22, Q 4.76, D 4.5, W 3.4, K 4.11, G 3.92, E 4.26, H 4.37
F15: E 3.59, M 3.66, D 3.17, G 2.83, S 2.93, L 3.77, W 4, N 3.18, R 3.59, H 3.14, Y 3.47, K 3.54, I 4.21, T 2.48, Q 3.4, A 3.08, V 3.06, P 2.8, C 3.34
